According to article PMC10876215, “Nucleosome conformation dictates the histone code” (eLife, 2024):

Key:
[1] = biological target: H3K4me3K9acK14acK18ac histone peptide (dCypher, biotinylated); assay: AlphaScreen or HTRF; dCypher on the Alpha platform; biotinylated histone peptide (100 nM final) on streptavidin donor beads, 6His-tagged Query titrated and held on Ni-NTA acceptor beads; 50 mM Tris pH 7.5, 50 mM NaCl, 0.01% Tween-20, 0.01% BSA, 0.0004% Poly-L Lysine, 1 mM TCEP; room temperature; relative EC50 (EC50^rel)
[2] = biological target: H4K5acK8acK12acK16ac histone peptide (dCypher, biotinylated); assay: AlphaScreen or HTRF; dCypher on the Alpha platform; biotinylated histone peptide (100 nM final) on streptavidin donor beads, GST-tagged Query titrated and held on glutathione acceptor beads; 50 mM Tris pH 7.5, 50 mM NaCl, 0.01% Tween-20, 0.01% BSA, 0.0004% Poly-L Lysine, 1 mM TCEP; room temperature; relative EC50 (EC50^rel), not an equilibrium Kd

fold weaker than for the H3K4me3 peptide [1]	EC50 [2]	Substance
2 fold	–	BPTF 6His-PHD (domain or fragment)
–	0.7 nM	GST-BRD4-BD1 (domain or fragment)
